{
  "source": "patent US20200140826A1",
  "about": "“Maintenance and Expansion of Pancreatic Progenitor Cells” (AGENCY FOR SCIENCE, TECHNOLOGY AND RESEARCH, priority 2017, published 2020)",
  "molecules": {"B1": {"name": "FGF10: fibroblast growth factor 10, growth factor in the cPP culture medium (50 ng/mL) (protein, UniProt O15520 38-208, looked up)", "Fibroblast growth factor 10": "QALGQDMVSPEATNSSSSSFSSPSSAGRHVRSYNHLQGDVRWRKLFSFTKYFLKIEKNGKVSGTKKENCPYSILEITSVEIGVVAVKAINSNYYLAMNKKGKLYGSKEFNNDCKLKERIEENGYNTYASFNWQHNGRQMYVALNGKGAPRRGQKTRRKNTSAHFLPMVVHS"}},
  "tested_on": "cPP cells",
  "assay": "Omission of individual components from complete cPP culture medium on 3T3-J2 feeders (phase contrast, qRT-PCR)",
  "type": "cell-based, human",
  "protocol": "Gentle cell dissociation reagent (STEMCELL Technologies, 07174) was used to passage cPP cells as aggregates that were then seeded at a 1:6 split ratio onto a layer of 3T3-J2 feeders (0.5×10^6 to 1×10^6 cells/cm^2) in medium composed of advanced DMEM/F12 (Thermo Fisher Scientific, 21634010), 2 mM L-glutamine (Thermo Fisher Scientific, 25030), 100 U/mL penicillin/streptomycin (Thermo Fisher Scientific, 15140122), 1× N2 supplement (Thermo Fisher Scientific, 17502-048), 1× B27 supplement (Thermo Fisher Scientific, 17504-044), 30 nM dexamethasone (STEMCELL Technologies, 72092), 50 ng/mL EGF (R&D Systems, 236-EG-200), 50 ng/mL FGF10 (Source Bioscience, ABC144), 3 μM RA (Sigma, R2625), 10 μM SB431542 (Calbiochem, 616464), and 1 μM DAPT (Sigma, D5942). If plating single cPP cells, complete medium was supplemented with 10 μM Y27632 for the first 48 hr (Sigma, Y0503). Medium was completely replenished every 2-3 days.\nRNA was isolated from samples using an RNeasy mini kit (Qiagen, cat # 74104) and reverse transcribed to generate cDNA using a high-capacity reverse transcription kit and random hexamer primers (Applied Biosystems, 4368814,1 μg RNA per 20 μL reaction). Quantitative RT-PCR was carried out using SYBR Select Mastermix (Applied Biosystems, 4472908). Data were analyzed using the ΔΔCT method, and normalized to expression of the housekeeping gene TBP in each sample. […]",
  "data": [
    {"molecule": "B1", "values": [
      {"measurement": "Effect of removing the component on cPP expansion, colony size and morphology", "setting": "component individually omitted from complete medium, cPP cells cultured 6 days on 3T3-J2 feeders", "value": "did not significantly affect colony size or morphology in the short term"},
      {"measurement": "Effect of removing the component on viability", "setting": "component removed from the culture media over multiple passages", "value": "noticeable loss of viability"}
    ]}
  ]
}
